Numbering of substitutions follows the chain as printed.

Data on 21 molecules can be found in patent US20210221875A1 (Chugai, published 2021).

B1: GRA1013Hhz-SG1/GRA1013Lqz-SK2 (antibody, human IgG1, kappa)
heavy: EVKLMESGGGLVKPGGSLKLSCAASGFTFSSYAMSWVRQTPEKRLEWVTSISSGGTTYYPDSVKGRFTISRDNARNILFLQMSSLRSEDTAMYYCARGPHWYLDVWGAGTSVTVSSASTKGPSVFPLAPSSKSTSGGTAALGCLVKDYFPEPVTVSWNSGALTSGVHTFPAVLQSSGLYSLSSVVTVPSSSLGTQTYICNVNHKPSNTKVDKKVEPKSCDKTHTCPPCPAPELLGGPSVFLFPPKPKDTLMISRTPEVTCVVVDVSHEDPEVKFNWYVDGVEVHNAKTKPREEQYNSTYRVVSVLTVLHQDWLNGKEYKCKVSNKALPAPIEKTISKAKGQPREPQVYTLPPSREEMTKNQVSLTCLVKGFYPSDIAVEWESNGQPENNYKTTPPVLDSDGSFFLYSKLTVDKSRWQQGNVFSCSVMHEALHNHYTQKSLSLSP
light: DILMTQTPLSLPVSLGDQASISCRSSQSIVHSNGNTYLEWYLQKPGQSPKLLIYKVSNRFSGVPDRFSGSGSGTDFTLKISRVEAEDLGVYYCFQGSHLPLTFGAGTKLELKRTVAAPSVFIFPPSDEQLKSGTASVVCLLNNFYPREAKVQWKVDNALQSGNSQESVTEQDSKDCTYSLSSTLTLSKADYEKHKVYACEVTHQGLSSPVTKSFNRGEC
notes: full length antibody
B2: GRA0124Hc0626-SG1/GRA0124Lc0544-SK2021 (antibody, human IgG1, kappa)
heavy: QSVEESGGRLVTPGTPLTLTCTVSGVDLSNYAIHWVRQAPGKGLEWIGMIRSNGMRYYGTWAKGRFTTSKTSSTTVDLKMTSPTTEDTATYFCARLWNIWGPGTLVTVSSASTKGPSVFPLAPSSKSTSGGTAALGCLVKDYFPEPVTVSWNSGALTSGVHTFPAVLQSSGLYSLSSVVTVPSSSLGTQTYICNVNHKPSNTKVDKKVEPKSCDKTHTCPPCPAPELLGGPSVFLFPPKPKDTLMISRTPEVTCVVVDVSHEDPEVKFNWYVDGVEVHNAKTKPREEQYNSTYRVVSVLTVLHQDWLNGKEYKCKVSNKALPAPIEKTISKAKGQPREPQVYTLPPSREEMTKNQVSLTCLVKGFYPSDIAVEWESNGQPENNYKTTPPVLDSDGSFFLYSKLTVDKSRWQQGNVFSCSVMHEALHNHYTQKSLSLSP
light: AQVLTQTPSSTSVAVGGTVTINCQSSPSVYLNLLAWYQQKPGQPPKLLIYSASFLQSGVPPRFSGSGSGTQFTLTISGVQCADAATYYCAGVYSNNIYTFGGGTKVEIKETVAAPSVFIFPPSDEQLKSGTASVVCLLNNFYPREAEVQWKVDNALQSGNSQESVTEQDSKDCTYSLSSTLTLSKADYEKHKVYACEVTHQGLSSPVTKSFNRGEC
notes: the row with this full length name is used
B3: GRA0124Hc0626-SG1265/GRA0124Lc0544-SK2021 (antibody, human IgG1, kappa)
heavy: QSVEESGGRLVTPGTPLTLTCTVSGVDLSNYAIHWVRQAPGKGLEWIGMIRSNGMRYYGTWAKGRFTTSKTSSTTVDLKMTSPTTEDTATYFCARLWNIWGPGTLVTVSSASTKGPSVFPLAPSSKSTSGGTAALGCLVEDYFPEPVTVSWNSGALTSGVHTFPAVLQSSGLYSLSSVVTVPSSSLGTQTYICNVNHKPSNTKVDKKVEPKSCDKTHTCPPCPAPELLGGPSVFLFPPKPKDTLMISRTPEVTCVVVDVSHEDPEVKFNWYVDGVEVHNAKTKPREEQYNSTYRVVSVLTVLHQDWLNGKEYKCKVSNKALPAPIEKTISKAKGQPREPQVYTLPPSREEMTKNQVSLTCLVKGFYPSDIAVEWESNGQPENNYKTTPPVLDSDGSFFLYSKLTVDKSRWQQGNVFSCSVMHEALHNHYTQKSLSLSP
light: B2 light
notes: the L chain name is printed with both 563 and 564 (564 stands in the row of the Fab SG1265/SK2021)
B4: GRA0124Hc0626-SG1286/GRA0124Lc0544-SK2025 (antibody, human IgG1, kappa)
heavy: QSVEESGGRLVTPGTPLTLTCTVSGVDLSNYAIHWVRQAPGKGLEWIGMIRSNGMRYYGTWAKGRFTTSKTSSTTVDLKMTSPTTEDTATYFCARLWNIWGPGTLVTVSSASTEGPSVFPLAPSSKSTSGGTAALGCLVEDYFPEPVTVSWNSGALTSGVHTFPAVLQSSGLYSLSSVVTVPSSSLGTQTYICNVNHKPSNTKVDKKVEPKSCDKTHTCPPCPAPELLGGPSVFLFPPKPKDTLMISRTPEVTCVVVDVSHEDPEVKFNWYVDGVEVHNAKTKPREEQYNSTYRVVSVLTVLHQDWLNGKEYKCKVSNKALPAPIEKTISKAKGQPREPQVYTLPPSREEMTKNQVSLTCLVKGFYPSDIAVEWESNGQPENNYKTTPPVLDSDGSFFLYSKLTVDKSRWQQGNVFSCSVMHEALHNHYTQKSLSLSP
light: B2 light with E110R, K171E
B5: GRA0124Hc0626-SG1286/GRA0124Lc0544-SK2027 (antibody, human IgG1, kappa)
heavy: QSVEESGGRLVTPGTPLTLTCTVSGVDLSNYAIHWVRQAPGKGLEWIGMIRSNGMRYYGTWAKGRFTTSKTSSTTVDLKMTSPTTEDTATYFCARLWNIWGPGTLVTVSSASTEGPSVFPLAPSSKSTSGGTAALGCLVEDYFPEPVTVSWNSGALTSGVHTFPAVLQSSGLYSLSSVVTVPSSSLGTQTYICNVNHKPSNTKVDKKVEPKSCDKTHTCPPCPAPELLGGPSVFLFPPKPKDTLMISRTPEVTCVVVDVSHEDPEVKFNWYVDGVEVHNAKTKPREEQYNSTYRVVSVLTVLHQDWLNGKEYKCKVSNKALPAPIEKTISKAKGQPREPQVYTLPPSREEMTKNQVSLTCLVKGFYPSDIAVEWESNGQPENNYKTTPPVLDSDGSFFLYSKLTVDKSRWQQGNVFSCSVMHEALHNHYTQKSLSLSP
light: B2 light with K171E
notes: full length antibody
B6: GRA0124Hc0626-SG1286/GRA0124Lc0544-SK2 (antibody, human IgG1, kappa)
heavy: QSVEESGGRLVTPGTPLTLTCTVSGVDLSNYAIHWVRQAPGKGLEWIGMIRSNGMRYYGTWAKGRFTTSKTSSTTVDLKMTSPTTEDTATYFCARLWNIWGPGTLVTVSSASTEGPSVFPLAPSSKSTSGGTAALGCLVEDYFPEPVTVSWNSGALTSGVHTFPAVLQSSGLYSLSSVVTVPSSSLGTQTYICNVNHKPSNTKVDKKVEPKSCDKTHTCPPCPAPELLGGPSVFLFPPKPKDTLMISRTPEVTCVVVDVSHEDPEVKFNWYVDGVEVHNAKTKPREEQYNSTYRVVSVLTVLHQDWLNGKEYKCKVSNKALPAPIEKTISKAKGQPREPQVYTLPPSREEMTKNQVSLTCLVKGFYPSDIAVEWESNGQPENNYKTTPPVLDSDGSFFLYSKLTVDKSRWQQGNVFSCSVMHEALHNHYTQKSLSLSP
light: B2 light with E110R, E147K
B7: GRA0124Hc1075-SG1/GRA0124Lc0952-SK2 (antibody, human IgG1, kappa, V domains shown)
VH: QSVEESGGDLVTPGTPLTLTCTVDGVDLSNYAIHWVRQAPGKGLEWIGMIRSNGMRYYGTWAKGRFTTSKTSSTTVDLKMTSPTTEDTATYFCARLWNIWGPGTLVTVSS
VL: AQVLDQTPSSTSVAVGGTVTINCQSSPSVYLNLLAWYQQKPGQPPKLLIYSASFLQSDVPDRFSGSGDGDQFDLDIDGVQCADAATYYCAGVYSNNIYTFGGGTKVEIKR
notes: full length antibody
B8: GRA0124Hc0626-SG1/GRA0124Lc0694-SK2 (antibody, human IgG1, kappa, V domains shown)
VH: B7 VH with D9R, D24S
VL: B7 VL with D5T, F54A, D58G, D61P, D68S, D70T, D73T, D75T, D77S
notes: full length antibody
B9: GRA0124Hc0626-SG1/GRA0124Lc0951-SK2 (antibody, human IgG1, kappa, V domains shown)
VH: B7 VH with D9R, D24S
VL: B7 VL with D5T
notes: full length antibody
B10: GRA0124Hc0626-SG1265/GRA0124Lc0544-SK2 (antibody, human IgG1, kappa)
heavy: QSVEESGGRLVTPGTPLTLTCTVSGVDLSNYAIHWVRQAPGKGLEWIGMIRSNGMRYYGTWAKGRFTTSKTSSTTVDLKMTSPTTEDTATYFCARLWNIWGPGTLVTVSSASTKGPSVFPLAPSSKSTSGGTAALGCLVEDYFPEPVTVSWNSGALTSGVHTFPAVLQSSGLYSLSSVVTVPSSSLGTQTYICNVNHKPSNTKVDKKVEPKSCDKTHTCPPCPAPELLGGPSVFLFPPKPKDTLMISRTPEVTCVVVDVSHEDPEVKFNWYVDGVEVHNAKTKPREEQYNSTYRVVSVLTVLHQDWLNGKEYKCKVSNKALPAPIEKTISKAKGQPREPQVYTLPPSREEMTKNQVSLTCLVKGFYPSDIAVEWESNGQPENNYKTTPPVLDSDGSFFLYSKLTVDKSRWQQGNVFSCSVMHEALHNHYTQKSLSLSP
light: B2 light with E110R, E147K
notes: full length antibody
B11: GRA0105Hg-SG1/GRA0105Lg-SK2 (antibody, human IgG1, kappa)
heavy: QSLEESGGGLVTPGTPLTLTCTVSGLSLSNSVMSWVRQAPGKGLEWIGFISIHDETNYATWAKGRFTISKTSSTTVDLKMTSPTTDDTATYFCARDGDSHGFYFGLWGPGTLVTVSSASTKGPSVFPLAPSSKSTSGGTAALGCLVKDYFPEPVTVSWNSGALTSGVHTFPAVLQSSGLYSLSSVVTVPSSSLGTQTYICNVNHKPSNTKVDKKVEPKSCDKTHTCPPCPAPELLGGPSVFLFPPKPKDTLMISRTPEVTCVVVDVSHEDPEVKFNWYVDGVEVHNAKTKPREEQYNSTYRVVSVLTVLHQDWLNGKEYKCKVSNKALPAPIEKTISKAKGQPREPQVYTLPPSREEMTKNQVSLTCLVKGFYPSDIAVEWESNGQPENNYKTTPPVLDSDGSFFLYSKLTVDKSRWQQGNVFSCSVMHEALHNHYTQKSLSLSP
light: AQVLTQTPSPVSAAVGGTVTINCQASQSVYNKNNLAWYQQKPGQPPKLLIYDASKLASGVPSRFKGGGSGTHFTLTISGVQCDDAATYYCQGTYYSSGWYNTFGGGTKVEIKRTVAAPSVFIFPPSDEQLKSGTASVVCLLNNFYPREAKVQWKVDNALQSGNSQESVTEQDSKDCTYSLSSTLTLSKADYEKHKVYACEVTHQGLSSPVTKSFNRGEC
notes: full length antibody
B12: 20A11hu-G1m/VL1-44-lamL (antibody, human IgG1, lambda, V domains shown)
VH: EVQLVESGGGLVQPGGSLRLSCAASGSVFKINVMAWVRQAPGKGLEWVAGIISGGSTSYADSVKGRFTISRDNAKNTLYLQMNSLRPEDTAVYYCAFITTESDYDLGRRYWGQGTLVTVSS
VL: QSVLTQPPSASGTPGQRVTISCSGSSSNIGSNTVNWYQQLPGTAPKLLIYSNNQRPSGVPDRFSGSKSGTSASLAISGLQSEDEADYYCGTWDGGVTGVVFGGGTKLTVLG
notes: IgG antibody-like molecule with VHH 20A11hu in place of VH
B13: 20A11hu-G1m/VK2-28-k0MT (antibody, human IgG1, kappa, V domains shown)
VH: B12 VH
VL: not shown
notes: as for B12
B14: 20A11hu-G1m/VK1-39-k0MT (antibody, human IgG1, kappa, V domains shown)
VH: B12 VH
VL: DIQMTQSPSSLSASVGDRVTITCRASQSISSYLNWYQQKPGKAPKLLIYAASSLQSGVPSRFSGSGSGTDFTLTISSLQPEDFATYYCLQFDSYPLTFGGGTKVEIKR
notes: IgG antibody-like molecule
B15: 20A11hu-G1m/VL1-40-lamL (antibody, human IgG1, lambda, V domains shown)
VH: B12 VH
VL: QSVLTQPPSVSGAPGQRVTISCTGSSSNIGAGYDVHWYQQLPGTAPKLLIYGNSNRPSGVPDRFSGSKSGTSASLAITGLQAEDEADYYCQSYDNSLNAVVFGGGTKLTVLG
notes: as for B12
B16: 20A11-G1m/VK1-39-k0MT (antibody, human IgG1, kappa, V domains shown)
VH: B12 VH with V37Y, L45R, W47L
VL: B14 VL
notes: IgG antibody-like molecule: anti-IL6R VHH 20A11 fused with human IgG1 CH1-hinge-CH2-CH3
B17: 20A11-G1m/VL1-40-lamL (antibody, human IgG1, lambda, V domains shown)
VH: B12 VH with V37Y, L45R, W47L
VL: B15 VL
notes: IgG antibody-like molecule with VHH 20A11 in place of VH
B18: 20A11-G1m/VK2-28-k0MT (antibody, human IgG1, kappa, V domains shown)
VH: B12 VH with V37Y, L45R, W47L
VL: not shown
notes: as for B17
B19: 20A11-G1m/VL1-44-lamL (antibody, human IgG1, lambda, V domains shown)
VH: B12 VH with V37Y, L45R, W47L
VL: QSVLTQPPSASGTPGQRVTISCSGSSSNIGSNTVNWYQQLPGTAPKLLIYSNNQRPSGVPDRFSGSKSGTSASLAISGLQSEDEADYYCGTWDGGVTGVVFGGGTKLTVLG
notes: as for B17
B20: 20A11-G1m/VL2-14-lamL (antibody, human IgG1, lambda, V domains shown)
VH: B12 VH with V37Y, L45R, W47L
VL: QSALTQPASVSGSPGQSITISCTGTSSDVGGYNYVSWYQQHPGKAPKLMIYEVSNRPSGVSNRFSGSKSGNTASLTISGLQAEDEADYYCSSYRSGYTLVVFGGGTKLTVLG
notes: as for B17
B21: 20A11-G1m/VL3-21-lamL (antibody, human IgG1, lambda, V domains shown)
VH: B12 VH with V37Y, L45R, W47L
VL: SYVLTQPPSVSVAPGKTARITCGGNNIGSKSVHWYQQKPGQAPVLVIYYDSDRPSGIPERFSGSNSGNTATLTISRVEAGDEADYYCQAWDSSTDVVFGGGTKLTVLG
notes: as for B17

One assay concerns the target T1, biotin-rabbit aggrecan G1-IGD-G2-3xFlag (rabbit, UniProt Q28670 17-683, biotin on the N-terminal Avi-tag (BirA co-expression)).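 Note: antibodies captured at roughly 200 RU on a CM4 or C1 chip through anti-human IgG Fc or Protein A/G, in sodium phosphate NaCl buffer with Tween 20.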
T1 construct: three tandem Flag-tags at the C-terminus and Avi-tag at the N-terminus; also called biotinylated Avi-rabbit aggrecan G1-IGD-G2-3xFLAG; Avi RbG1G2 3FLAG
Kind of assay: SPR (Biacore T200), 37 C, pH 7.4, antibody captured, Avi RbG1G2 3Flag as analyte, 1:1 model. (Surface plasmon resonance follows binding to a sensor surface in real time, without labels.)
Experimental: Anti-Human IgG (Fc) antibody was immobilized onto all flow cells of a CM4 sensor chip using Human antibody capture kit (GE Healthcare). Protein A/G was immobilized onto all flow cells of a CM4 or C1 sensor chip using amine coupling kit (GE Healthcare). Antibodies and analytes were prepared in buffer (50 mM Sodium Phosphate, 150 mM NaCl, 0.02% Tween 20, 0.005% NaN3, pH 7.4 or 20 mM Sodium Phosphate, 150 mM NaCl, 0.05% Tween20, 0.005% NaN₃, pH 7.4). Each antibody was captured onto the sensor surface by Anti-Human IgG (Fc) antibody or Protein A/G. Antibody capture levels were aimed at 200 resonance unit (RU). […] Sensor surface was regenerated each cycle with 3 M MgCl₂ or 10 mM Glycine-HCl, pH 1.5.
The term Kd denotes the free concentration of one partner at which half of the binding sites on the other are occupied at equilibrium, for simple one-to-one binding. Lower therefore signals a tighter complex. Broadly, the koff is the rate constant with which the complex falls apart. The kon is the rate constant with which the complex forms. Regarding B1, the Kd was 256 nM, the koff stood at 0.0147 s⁻¹ and the kon came out at 57600 M⁻¹ s⁻¹.
In the same order, the values of B2 are 13.4 nM, 0.000718 s⁻¹ and 53500 M⁻¹ s⁻¹.
In the same order, the values of B3 are 14.4 nM, 0.000757 s⁻¹ and 52700 M⁻¹ s⁻¹.
On the same counts, the results for B4 are 15.2 nM, 0.000786 s⁻¹ and 51900 M⁻¹ s⁻¹.
Regarding B5, binding was put at a Kd of 15.1 nM, the koff stood at 0.00078 s⁻¹ and the kon came out at 51700 M⁻¹ s⁻¹.
The molecule B6 displayed a Kd of 17 nM, a koff of 0.000883 s⁻¹ and an association rate constant (kon) of 51900 M⁻¹ s⁻¹.
In turn, B7 had a Kd of 3.68 nM, a koff of 0.000267 s⁻¹ and a kon of 72700 M⁻¹ s⁻¹.
On the same counts, the results for B8 are 77.5 nM, 0.00202 s⁻¹ and 26100 M⁻¹ s⁻¹.
The molecule B9 had a Kd of 4.04 nM, a koff of 0.000321 s⁻¹ and a kon of 79400 M⁻¹ s⁻¹.
In the same order, the values of B10 are 15.9 nM, 0.000837 s⁻¹ and 52700 M⁻¹ s⁻¹.
In the same order, the values of B11 are 3.28 nM, 0.000455 s⁻¹ and 139000 M⁻¹ s⁻¹.

Another assay has as its target T2, soluble human IL-6R (human, UniProt P08887 20-357).
T2 construct: also called hsIL-6R; recombinant human IL6R
T2 sequence: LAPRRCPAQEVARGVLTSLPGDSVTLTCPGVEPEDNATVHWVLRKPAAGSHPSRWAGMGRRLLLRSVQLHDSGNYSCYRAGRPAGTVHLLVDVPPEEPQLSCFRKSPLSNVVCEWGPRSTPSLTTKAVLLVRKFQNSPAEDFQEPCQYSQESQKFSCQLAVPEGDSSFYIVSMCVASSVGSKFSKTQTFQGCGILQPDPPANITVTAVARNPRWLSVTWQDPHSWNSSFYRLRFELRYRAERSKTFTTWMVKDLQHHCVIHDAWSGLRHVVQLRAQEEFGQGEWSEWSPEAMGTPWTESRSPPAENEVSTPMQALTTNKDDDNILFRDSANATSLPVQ
Nature of the assay: BLI (Octet), in the same way as in Example 3, 30 C or 25 C. On the technique in general: BLI is a label-free optical method that tracks binding on a fibre tip over time.
Consider B12, for which the binding result is “no binding”.
Still for that read-out and setting: with B13 the entry was “no binding”; with B14, “no binding”; with B15, “no binding”.

A further assay addresses T2, soluble human IL-6R. Nature of the assay: BLI (Octet), in the same way as in Example 3.
For the molecule B16, the binding result was “binds”.
For B17, the binding result is “binds”.
The same measure, in the same setting: with B18 the entry was “binds”; with B19, “binds”; with B20, “binds”.
On the same count and under the same terms, with B21 the entry was “binds”.
